{"source": "the RNAGym collection of RNA variant scans (doi:10.1073/pnas.2313332121)", "parents": {"B1": {"name": "TPR t1 (parent)", "chain": "GACCAAUCUGCCCUCAGAGCUCGAGAACAUCUUCGGAUGCAGAGGAGGCAGGCUUCGGUGGCGCGAUAGCGCCAACGUCCUCAACCUCCAAUGCAUCCCACCACAUGAUGAUGCCUGAAGAGCCUUGGUUUUUUG"}}, "data": [{"variants_of": "B1", "experiment": "polymerase ribozyme fitness, log enrichment relative to wild type (log ratio); higher = more active; in vitro selection for triplet polymerase activity", "in_short": "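Fitness compares each genotype's enrichment to that of the wild type on a logarithmic scale, averaging replicates with inverse-variance weights. The logarithm is base 2. Enrichment came from Illumina sequencing of input and output libraries after one triplicate round of in vitro selection, which included frozen incubation at −7 °C, of PCR-built, transcribed mutant libraries of each subunit of a heterodimeric triplet polymerase ribozyme. Only genotypes with ≥10 input reads and ≥1 read per output were kept.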", "values": [{"variant": "G48A C53U G63U G110A", "polymerase ribozyme fitness (log ratio)": -3.27}, {"variant": "A83G C86A G113A", "polymerase ribozyme fitness (log ratio)": -2.01}, {"variant": "U14G G48U G60U", "polymerase ribozyme fitness (log ratio)": -2.56}, {"variant": "C8U G52A A74U U112C", "polymerase ribozyme fitness (log ratio)": 1.59}, {"variant": "C11U A46G G69U", "polymerase ribozyme fitness (log ratio)": -0.0646}, {"variant": "C4G C34A C72G", "polymerase ribozyme fitness (log ratio)": -5.9}, {"variant": "A41C G48C U78G A111G", "polymerase ribozyme fitness (log ratio)": -1.93}, {"variant": "C11U U112G G127A", "polymerase ribozyme fitness (log ratio)": -1.34}, {"variant": "A46U C56U C114A", "polymerase ribozyme fitness (log ratio)": -2.28}, {"variant": "G52U U54A G63A C115A", "polymerase ribozyme fitness (log ratio)": -0.839}, {"variant": "G44C C102G A108C C114G G122A", "polymerase ribozyme fitness (log ratio)": -6.67}, {"variant": "C114A C124A", "polymerase ribozyme fitness (log ratio)": -1.12}, {"variant": "A37U U81A C101A G110U", "polymerase ribozyme fitness (log ratio)": -5.35}, {"variant": "U21A C76U A91C", "polymerase ribozyme fitness (log ratio)": -2.35}, {"variant": "G42U C88G C101A G120C", "polymerase ribozyme fitness (log ratio)": -3.53}, {"variant": "U9A G52A C104U G110C", "polymerase ribozyme fitness (log ratio)": -3.92}, {"variant": "G42A C85U", "polymerase ribozyme fitness (log ratio)": -2.41}, {"variant": "A50G G60C", "polymerase ribozyme fitness (log ratio)": -1.81}, {"variant": "C15A G63U C72U U129G U131C", "polymerase ribozyme fitness (log ratio)": -4.85}, {"variant": "C72U A118C", "polymerase ribozyme fitness (log ratio)": -2.89}, {"variant": "C13U U21C C64U", "polymerase ribozyme fitness (log ratio)": -0.0953}, {"variant": "C8U C28G U109A", "polymerase ribozyme fitness (log ratio)": -4.64}, {"variant": "A84G C88U", "polymerase ribozyme fitness (log ratio)": -0.134}, {"variant": "G39U C49U C97A C124A G127A", "polymerase ribozyme fitness (log ratio)": -5.83}, {"variant": "G61A U87C", "polymerase ribozyme fitness (log ratio)": -0.201}, {"variant": "G60U U130C", "polymerase ribozyme fitness (log ratio)": 0.326}, {"variant": "A29G A37C A74G A111C", "polymerase ribozyme fitness (log ratio)": -1.06}, {"variant": "G17U C88U", "polymerase ribozyme fitness (log ratio)": -2.42}, {"variant": "G10U A46U C73U C88A U133A", "polymerase ribozyme fitness (log ratio)": -2.31}, {"variant": "A46U U78C G113A", "polymerase ribozyme fitness (log ratio)": -2.45}, {"variant": "G48U", "polymerase ribozyme fitness (log ratio)": -0.903}, {"variant": "U59A A74C C82A G93C", "polymerase ribozyme fitness (log ratio)": -1.19}, {"variant": "C94G U109C A121U", "polymerase ribozyme fitness (log ratio)": -6.64}, {"variant": "G120A U130C", "polymerase ribozyme fitness (log ratio)": 0.856}, {"variant": "C56A C88G A118U", "polymerase ribozyme fitness (log ratio)": -1.12}, {"variant": "C49U G51U C62U C80A G113A", "polymerase ribozyme fitness (log ratio)": -4.27}, {"variant": "A24G C115U", "polymerase ribozyme fitness (log ratio)": -2.59}, {"variant": "U54C C79G U125C", "polymerase ribozyme fitness (log ratio)": -4.66}, {"variant": "G36U U59A A90G C97G U106C", "polymerase ribozyme fitness (log ratio)": -1.98}, {"variant": "C13G C53G C115A", "polymerase ribozyme fitness (log ratio)": -1.47}, {"variant": "G36U C86A", "polymerase ribozyme fitness (log ratio)": -1.1}, {"variant": "U30C G48U C73A C82A", "polymerase ribozyme fitness (log ratio)": -3.73}, {"variant": "A6C G93A", "polymerase ribozyme fitness (log ratio)": -1.25}, {"variant": "G45A G69A", "polymerase ribozyme fitness (log ratio)": -3.01}, {"variant": "C70U C88A A119G U131A", "polymerase ribozyme fitness (log ratio)": 1.21}, {"variant": "G10U U14A C73A A83U", "polymerase ribozyme fitness (log ratio)": -1.57}, {"variant": "G58A U129C", "polymerase ribozyme fitness (log ratio)": -0.222}, {"variant": "A5C C11U G122A", "polymerase ribozyme fitness (log ratio)": 0.875}, {"variant": "C85G U132A", "polymerase ribozyme fitness (log ratio)": -1.6}, {"variant": "C3G C20U A46G C124U", "polymerase ribozyme fitness (log ratio)": -2.93}, {"variant": "C20A U112C U116A", "polymerase ribozyme fitness (log ratio)": -3.11}, {"variant": "C20A G69U", "polymerase ribozyme fitness (log ratio)": -1.94}, {"variant": "G10C C15A G39C", "polymerase ribozyme fitness (log ratio)": -4.62}, {"variant": "G57U U125A", "polymerase ribozyme fitness (log ratio)": -0.415}, {"variant": "U54A G69U", "polymerase ribozyme fitness (log ratio)": -0.707}, {"variant": "G113A G122C G135C", "polymerase ribozyme fitness (log ratio)": -0.874}, {"variant": "A46U G135U", "polymerase ribozyme fitness (log ratio)": -1.71}, {"variant": "C62A U96G G113C C123G U133A", "polymerase ribozyme fitness (log ratio)": -3.2}, {"variant": "C22G G45U C56G A111U", "polymerase ribozyme fitness (log ratio)": -3.8}, {"variant": "C11A U21G G120U C123A", "polymerase ribozyme fitness (log ratio)": -0.701}, {"variant": "C12G G93A C94U", "polymerase ribozyme fitness (log ratio)": -1.83}, {"variant": "U38C G57A G69U U96A", "polymerase ribozyme fitness (log ratio)": -3.58}, {"variant": "G48C G60U", "polymerase ribozyme fitness (log ratio)": -2.22}, {"variant": "A95U G113A", "polymerase ribozyme fitness (log ratio)": -2.53}, {"variant": "C11G C40A C72U C101U C104U", "polymerase ribozyme fitness (log ratio)": -1.72}, {"variant": "C12G G19U C72U", "polymerase ribozyme fitness (log ratio)": -6.54}, {"variant": "C20U G36U C70U G135U", "polymerase ribozyme fitness (log ratio)": -3.95}, {"variant": "C8G C13G C98U", "polymerase ribozyme fitness (log ratio)": -0.112}, {"variant": "A18U G39U C104U U112A", "polymerase ribozyme fitness (log ratio)": -1.88}, {"variant": "C49U G110U", "polymerase ribozyme fitness (log ratio)": -2.6}, {"variant": "U55G C70G", "polymerase ribozyme fitness (log ratio)": -2.34}, {"variant": "U9G C13U C49G C82U", "polymerase ribozyme fitness (log ratio)": -0.776}, {"variant": "C53A U55A G71C C88U C89U", "polymerase ribozyme fitness (log ratio)": -1.28}, {"variant": "A24G C49G A121C", "polymerase ribozyme fitness (log ratio)": -0.875}, {"variant": "C49A C64U U129C U133C", "polymerase ribozyme fitness (log ratio)": -0.175}, {"variant": "C70G C123A", "polymerase ribozyme fitness (log ratio)": -2.21}, {"variant": "G69U A103G U106A", "polymerase ribozyme fitness (log ratio)": -4.7}, {"variant": "C20A G60A G113C", "polymerase ribozyme fitness (log ratio)": -5.06}, {"variant": "C40U A41C G48U C56U G58C", "polymerase ribozyme fitness (log ratio)": -1.43}, {"variant": "C20A A91C", "polymerase ribozyme fitness (log ratio)": -3.55}, {"variant": "G61A G77A C89U U126A", "polymerase ribozyme fitness (log ratio)": -2.77}, {"variant": "C13G A83C A121G", "polymerase ribozyme fitness (log ratio)": 1.65}, {"variant": "C53U U78C G120C", "polymerase ribozyme fitness (log ratio)": -0.0303}, {"variant": "U32C C73U C85U C98U", "polymerase ribozyme fitness (log ratio)": -4.19}]}]}
